# Measured values as given in article PMC5517563 (Scientific Reports, 2017).
# Where a chain is given by its changes, count along the chain named. Names may count otherwise.
# T1: MtACK (Methanosarcina thermophila acetate kinase) (Methanosarcina thermophila, UniProt P38502, G331Q/I332M)
# T1 construct: gene ackA; recombinant, produced in E. coli Rosetta2 (DE3) pLysS
# T1 sequence (P38502 1-408 G331Q/I332M): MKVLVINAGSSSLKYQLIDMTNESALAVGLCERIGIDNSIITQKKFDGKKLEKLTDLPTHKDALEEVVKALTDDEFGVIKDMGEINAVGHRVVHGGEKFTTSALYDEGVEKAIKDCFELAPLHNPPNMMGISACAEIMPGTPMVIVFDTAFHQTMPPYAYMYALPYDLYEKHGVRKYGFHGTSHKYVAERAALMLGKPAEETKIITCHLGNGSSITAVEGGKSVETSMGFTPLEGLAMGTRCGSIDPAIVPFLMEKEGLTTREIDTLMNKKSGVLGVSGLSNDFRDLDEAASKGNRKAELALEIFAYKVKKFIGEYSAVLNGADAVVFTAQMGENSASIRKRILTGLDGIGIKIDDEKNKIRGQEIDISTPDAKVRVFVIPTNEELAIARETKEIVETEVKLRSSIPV
# T2: MtACK (Methanosarcina thermophila acetate kinase) (Methanosarcina thermophila, UniProt P38502)
# T2 construct: gene ackA; recombinant, produced in E. coli Rosetta2 (DE3) pLysS
# T2 sequence (P38502 1-408): T1 sequence (P38502 1-408 G331Q/I332M) with Q331G, M332I
# T3: EhACK (Entamoeba histolytica acetate kinase) (Entamoeba histolytica, UniProt C4M1C3)
# T3 construct: gene EHI_170010; recombinant, produced in E. coli YBS121 delta-ack delta-pta (pREP4)
# T3 sequence (C4M1C3 1-392): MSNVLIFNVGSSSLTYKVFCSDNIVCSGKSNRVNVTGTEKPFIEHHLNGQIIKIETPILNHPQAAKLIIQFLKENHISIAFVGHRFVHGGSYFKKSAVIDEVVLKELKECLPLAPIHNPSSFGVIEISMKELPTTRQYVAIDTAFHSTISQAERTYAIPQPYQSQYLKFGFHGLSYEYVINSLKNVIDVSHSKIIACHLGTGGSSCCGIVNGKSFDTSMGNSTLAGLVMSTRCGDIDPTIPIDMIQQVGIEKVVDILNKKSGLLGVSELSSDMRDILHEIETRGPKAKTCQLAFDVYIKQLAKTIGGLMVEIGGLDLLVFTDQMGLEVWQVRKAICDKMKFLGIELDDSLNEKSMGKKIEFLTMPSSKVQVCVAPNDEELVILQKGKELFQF
# B1: EhACK (Entamoeba histolytica acetate kinase) (Entamoeba histolytica HM-1:IMSS) (protein)
# chain: T3 sequence (C4M1C3 1-392)
# B2: MtACK (Methanosarcina thermophila acetate kinase) (Methanosarcina thermophila) (protein)
# chain: T1 sequence (P38502 1-408 G331Q/I332M) with Q331G, M332I
# B3: MtACK (Methanosarcina thermophila acetate kinase) (Methanosarcina thermophila; G331Q/I332M) (protein)
# chain: T1 sequence (P38502 1-408 G331Q/I332M)
# Key:
# [1] = molecular target: T1, MtACK (Methanosarcina thermophila acetate kinase); assay: reverse modified hydroxamate assay ([…] nm); format: biochemical; settings: read-out: ATP IC50 (mM) / Acetate-forming direction
# [2] = molecular target: T2, MtACK (Methanosarcina thermophila acetate kinase); assay: reverse modified hydroxamate assay ([…] nm); format: biochemical; settings: read-out: ATP IC50 (mM) / Acetate-forming direction
# [3] = molecular target: T1, MtACK (Methanosarcina thermophila acetate kinase); assay: hydroxamate assay ([…] nm); format: biochemical; settings: acetyl phosphate-forming direction; MgATP, co-substrate acetate; 100 mM Tris pH 7.5, 600 mM hydroxylamine, 37 °C; apparent
# [4] = molecular target: T3, EhACK (Entamoeba histolytica acetate kinase); assay: reverse modified hydroxamate assay ([…] nm); format: biochemical; settings: read-out: ATP IC50 (mM) / Acetate-forming direction
# [5] = molecular target: T2, MtACK (Methanosarcina thermophila acetate kinase); assay: hydroxamate assay ([…] nm); format: biochemical; settings: acetyl phosphate-forming direction; MgATP, co-substrate acetate; 100 mM Tris pH 7.5, 600 mM hydroxylamine, 37 °C; apparent
# [6] = molecular target: T4, EhACK (Entamoeba histolytica acetate kinase) (Entamoeba histolytica, UniProt C4M1C3, M324A/Q323A); assay: biochemical
# T4 construct: gene EHI_170010
# [7] = molecular target: T5, EhACK (Entamoeba histolytica acetate kinase) (Entamoeba histolytica, UniProt C4M1C3, D272A/M324I/Q323G/R274A); assay: biochemical
# T5 construct: gene EHI_170010
# [8] = molecular target: T6, EhACK (Entamoeba histolytica acetate kinase) (Entamoeba histolytica, UniProt C4M1C3, M324I/Q323G); assay: biochemical
# T6 construct: gene EHI_170010
# purified protein [9] = substrate: CC(=O)OP(=O)(O)O; assay: purified protein; settings: acetate-forming direction, apparent
# purified protein [10] = substrate: O=P(O)(O)O; assay: purified protein; settings: acetate-forming direction, co-substrate acetyl phosphate, 10 mM MgCl2, 100 mM Tris-HCl pH 7.0, 37 °C, apparent, pH 7.0
# purified protein [11] = substrate: O=P(O)(O)OP(=O)(O)O; assay: purified protein; settings: acetyl phosphate-forming direction, co-substrate acetate, 5 mM MgCl2, morpholinoethanesulfonic acid pH 5.5, 600 mM hydroxylamine, 45 °C, apparent
# purified protein [12] = substrate: CC(=O)O; assay: purified protein; settings: acetyl phosphate-forming direction, co-substrate MgATP, 100 mM Tris pH 7.5, 600 mM hydroxylamine, 37 °C, apparent, pH 7.5
# purified protein [13] = substrate: Nc1ncnc2c1ncn2[C@@H]1O[C@H](COP(=O)(O)OP(=O)(O)O)[C@@H](O)[C@H]1O; assay: purified protein; settings: acetate-forming direction, MgADP, co-substrate acetyl phosphate, 100 mM Tris pH 7.5, 37 °C, apparent
# [14] = co-substrate Pi, 10 mM MgCl2, 100 mM Tris-HCl pH 7.0, 37 °C
# [15] = co-substrate MgADP, 100 mM Tris pH 7.5, 37 °C
molecule,measurement,setting,value
O=P(O)(O)OP(=O)(O)O [PPi],IC50,[1],4 ± 0.28 mM
same,IC50,[2],3.3 ± 0.06 mM
Nc1ncnc2c1ncn2[C@@H]1O[C@H](COP(=O)(O)OP(=O)(O)OP(=O)(O)O)[C@@H](O)[C@H]1O [ATP],Km,[3],9400 ± 270 µM
same,IC50,[4],6.1 ± 0.05 mM
same,Km,[5],1700 ± 30 µM
same,IC50,[6],4.8 ± 0.09 mM
same,IC50,[7],2.4 ± 0.19 mM
same,IC50,[8],4.2 ± 0.3 mM
B1,Km,purified protein [9]; [14],570 ± 30 µM
same,kcat,purified protein [9]; [14],266 ± 12 s⁻¹
same,kcat/Km,purified protein [9]; [14],467000 ± 44000 M⁻¹ s⁻¹
same,Km,purified protein [10],14000 ± 1200 µM
same,kcat,purified protein [10],196 s⁻¹
same,kcat/Km,purified protein [10],14000 M⁻¹ s⁻¹
same,Km,purified protein [11],2100 ± 330 µM
same,kcat,purified protein [11],0.9 ± 0.03 s⁻¹
same,kcat/Km,purified protein [11],440 ± 60 M⁻¹ s⁻¹
B2,Km,purified protein [12],20000 ± 300 µM
same,kcat,purified protein [12],789 s⁻¹
same,kcat/Km,purified protein [12],39000 M⁻¹ s⁻¹
same,Km,purified protein [9]; [15],1200 ± 90 µM
same,kcat,purified protein [9]; [15],1550 ± 54 s⁻¹
same,kcat/Km,purified protein [9]; [15],1.29e+06 ± 56000 M⁻¹ s⁻¹
same,Km,purified protein [13],1800 ± 130 µM
same,kcat,purified protein [13],1915 ± 15 s⁻¹
same,kcat/Km,purified protein [13],1.07e+06 ± 69000 M⁻¹ s⁻¹
B3,Km,purified protein [13],5700 ± 560 µM
same,kcat,purified protein [13],12 ± 0.5 s⁻¹
same,kcat/Km,purified protein [13],2000 ± 140 M⁻¹ s⁻¹
